Measurements taken from patent US20200400662A1.
Where “and” joins values, the source holds several entries; their conditions need not be identical. Equal values may be shown once. Values belong to the binder of their own block, whether it stands above or below them.

Biological target: Drug A
Experiment: cell-based or functional assay

- hemagglutination of Drug A-coated erythrocytes with anti-IgG; molar excess of Fab that prevented it (fold molar excess relative to Drug A): 2500
B1: Fab fragment of Antibody A (Fab, V domains shown)
VH: DVQLVESGGGVVRPGESLRLSCAASGFSFSSYAMNWVRQAPGEGLEWVSRINSGGGGTDYAESVKGRFTISRDNSENTLYLQMNSLRAEDTAVYYCAKQYDWNSFFDYWGLGALVTVSS
VL: ETVLTQSPATLSVSPGERATLSCRASQTVGSKLAWHQQKPGQAPRLLIYDATNRATGISDRFSGSGSGTDFTLTISSLQTEDSAVYYCQQYYYWPPYRFGGGTKVEIK

- hemagglutination of Drug A-coated erythrocytes with anti-IgG; molar excess of Fab that prevented it (fold molar excess relative to Drug A): 200 and 400
B2: Fab fragment of Antibody C (Fab, V domains shown)
VH: DVQLVESGGGVVRPGESLRLSCEASGFTFSSNAMSWVRQAPGKGLEWVAGISSGSDTYYGDSVKGRLTISRDNSKNILYLQMNSLTAEDTAVYYCARETWNHLFDYWGQGTLVTVSS
VL: SYELTQPPSVSVSPGQTARITCSGGSYSSYYYAWYQQKPGQAPVTLIYSDDKRPSNIPERFSGSSSGTTVTLTISGVQAEDEADYYCGGYDQSSYTNPFGGGTKLTVL
